Experimental data: US20250115677A1, “Anti-CEA Antibody Drug Conjugates and Methods of Use” (BeiGene Switzerland GmbH, priority 2022, published 2025)
Changes are numbered by the printed parent chain. In names and notes the source's numbering stands.

B1: BGA1789 (antibody, human IgG1, V domains shown)
VH: QVQLVQSGAEVKKPGASVKVSCKASGYIFTSYWLHWVRQAPGQGLEWIGYINPQTGYTSYAQKFQGRVTMTRDTSTSTVYMELSSLRSEDTAVYYCAREYGNYNYPLDYWGQGTLVTVSS
VL: DIQMTQSPSSLSASVGDRVTITCRASENQYGYLAWYQQKPGKVPKLLIYNYKNLVEGVPSRFSGSGSGTDFTLTISSLQPEDVATYYCQHHLGTPYTFGQGTKVEIK
notes: Built on the BGA7592-1F-ph-M (BGA2433) template; human IgG1/kappa
B2: BGA0089 (antibody, human IgG1, V domains shown)
VH: B1 VH with S59N
VL: B1 VL with Y51T
notes: as for B1
B3: BGA2107 (antibody, human IgG1, V domains shown)
VH: B1 VH with Q54N
VL: B1 VL with Y51T
notes: as for B1
B4: BGA2490 (antibody, human IgG1, kappa, V domains shown)
VH: B1 VH with W33Y, Y57K
VL: DIQMTQSPSSLSASVGDRVTITCRASENQYGYLAWYQQKPGKVPKLLIYNYKNLVEGVPSRFSGSGSGTDFTLTISSLQPEDVATYYCQHHLGTPYTFGQGTKVEIKR
modifications: linker-payload conjugated after reduction of the antibody, DAR 8 profile (structure only as a drawing in Table 18)
B5: BGA9962 (antibody, human IgG1, kappa, V domains shown)
VH: B1 VH with W33Y, Y57K
VL: B4 VL
modifications: linker-payload conjugated after reduction of the antibody, DAR 8 (structure only as a drawing in Table 18)
B6: BGA8357 (antibody, human IgG1, kappa, V domains shown)
VH: B1 VH with W33Y, Y57K
VL: B4 VL
modifications: linker-payload conjugated after reduction of the antibody, DAR 8 profile (structure only as a drawing in Table 18)
B7: BGA2588 (BGA5384 conjugated with DXD) (antibody, human IgG1, kappa, V domains shown)
VH: B1 VH with W33Y, Y57K
VL: B4 VL
modifications: DXD linker-payload conjugated after reduction of the antibody, DAR 8 profile (structure only as a drawing in Table 18)
B8: BGA7413 (antibody, human IgG1, kappa, V domains shown)
VH: B1 VH with W33Y, Y57K
VL: B4 VL
modifications: linker-payload conjugated after reduction of the antibody, DAR 8 profile (structure only as a drawing in Table 18)
B9: BGA0084 (antibody, human IgG1, kappa, V domains shown)
VH: B1 VH with W33Y, Y57K
VL: B4 VL
modifications: linker-payload conjugated after reduction of the antibody, DAR 8 profile (structure only as a drawing in Table 18)
B10: BGA6710 variant Y57D (antibody, V domains shown)
VH: B1 VH with W33Y, Y57D
VL: B1 VL
notes: IgG format; change in the heavy chain
B11: BGA6710 variant Q54E, Y57K (antibody, V domains shown)
VH: B1 VH with W33Y, Q54E, Y57K
VL: B1 VL
notes: IgG format; both changes in the heavy chain
B12: BGA6710 variant L92E, Y57K (antibody, V domains shown)
VH: B1 VH with W33Y, Y57K
VL: B1 VL with L92E
notes: IgG format
B13: BGA6710 variant Q54E, Y57E (antibody, V domains shown)
VH: B1 VH with W33Y, Q54E, Y57E
VL: B1 VL
notes: as for B11
B14: BGA6710 variant L92E (antibody, V domains shown)
VH: B1 VH with W33Y
VL: B1 VL with L92E
notes: IgG format; L92E in the light chain
B15: BGA6710 variant K13E, Y57K (antibody, V domains shown)
VH: B1 VH with K13E, W33Y, Y57K
VL: B1 VL
notes: as for B11

Molecular target: T1, chimeric construct (CHIM) (human)
T1 construct: CEACAM6 AA 1-273 joined to the membrane-peripheral region containing domain B3 of CEA (AA 596-687), C-terminal 6xHis; also called chimeric CEA
T1 chain: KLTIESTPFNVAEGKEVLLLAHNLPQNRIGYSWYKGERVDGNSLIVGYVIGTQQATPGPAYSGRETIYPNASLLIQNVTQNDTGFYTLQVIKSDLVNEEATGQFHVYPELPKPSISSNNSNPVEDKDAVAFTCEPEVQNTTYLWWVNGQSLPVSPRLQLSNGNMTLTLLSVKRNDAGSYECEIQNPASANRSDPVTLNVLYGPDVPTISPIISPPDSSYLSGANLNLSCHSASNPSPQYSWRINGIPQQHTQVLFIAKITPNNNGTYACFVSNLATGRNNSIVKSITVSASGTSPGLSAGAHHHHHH
Test: SPR; binding to CHIM
Details: not given

| Molecule | Kd | koff | kon |
| --- | --- | --- | --- |
| B1 | 14400 pM | 0.000463 s⁻¹ | 32100 M⁻¹ s⁻¹ |
| B2 | 21500 pM | 0.000394 s⁻¹ | 18400 M⁻¹ s⁻¹ |
| B3 | 19200 pM | 0.00038 s⁻¹ | 19800 M⁻¹ s⁻¹ |

These molecules were tested against T2, human CEA on cells (MKN45, LOVO, NCI-H2122, LS174T, CT26/CEA) (human, UniProt P06731 35-685) (assay: cell-based or functional assay). Details: not given.
T2 sequence: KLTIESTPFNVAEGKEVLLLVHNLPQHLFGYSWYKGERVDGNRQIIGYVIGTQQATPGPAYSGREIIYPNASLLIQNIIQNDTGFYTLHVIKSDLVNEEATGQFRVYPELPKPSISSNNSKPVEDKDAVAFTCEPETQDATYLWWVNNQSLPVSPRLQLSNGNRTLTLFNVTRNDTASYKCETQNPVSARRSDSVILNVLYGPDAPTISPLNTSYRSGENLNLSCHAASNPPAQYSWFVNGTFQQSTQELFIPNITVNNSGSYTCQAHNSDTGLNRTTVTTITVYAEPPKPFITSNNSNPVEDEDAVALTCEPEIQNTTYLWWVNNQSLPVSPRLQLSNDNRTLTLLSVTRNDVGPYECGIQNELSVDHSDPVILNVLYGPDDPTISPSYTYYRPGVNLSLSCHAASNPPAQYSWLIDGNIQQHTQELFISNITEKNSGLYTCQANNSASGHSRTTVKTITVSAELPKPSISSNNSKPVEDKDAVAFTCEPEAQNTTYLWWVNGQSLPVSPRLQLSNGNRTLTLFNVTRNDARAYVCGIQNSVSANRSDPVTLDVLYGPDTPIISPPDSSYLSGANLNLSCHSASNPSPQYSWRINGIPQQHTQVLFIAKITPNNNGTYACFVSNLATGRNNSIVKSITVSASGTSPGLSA

| Molecule | EC50, cell killing of MKN45 cells | Emax, cell killing of MKN45 cells |
| --- | --- | --- |
| B4 | 440 pM | 89 |
| B5 | 390 pM | 87.1 |
| B6 | 380 pM | 89.1 |
| B7 | 460 pM | 85 |
| B8 | 460 pM | 87.2 |
| B9 | 380 pM | 88.8 |

Molecular target: T2, human CEA on cells (MKN45, LOVO, …)
Test: cell-based or functional assay
Details: not given
Remark: another data set of the same source

| Molecule | EC50, cell killing of NCI-H2122 cells | Emax, cell killing of NCI-H2122 cells |
| --- | --- | --- |
| B4 | 190 pM | 82.8 |
| B5 | 170 pM | 80 |
| B6 | 140 pM | 83.9 |
| B7 | 220 pM | 74 |
| B8 | – | 81.5 |
| B9 | 190 pM | 83.8 |

Molecular target: T2, human CEA on cells (MKN45, LOVO, …)
Test: cell-based or functional assay
Details: not given
Remark: another data set of the same source

| Molecule | EC50, cell killing of LS174T cells | Emax, cell killing of LS174T cells |
| --- | --- | --- |
| B4 | 760 pM | 70.3 |
| B5 | 830 pM | 66.7 |
| B6 | 670 pM | 71.8 |
| B7 | 1120 pM | 69.7 |
| B8 | 880 pM | 66.9 |
| B9 | 850 pM | 69.9 |

Each molecule was assayed against T2, human CEA on cells (MKN45, LOVO, …) (assay: flow cytometry on MKN45 cells). Details: not given.

| Molecule | EC50 | Top |
| --- | --- | --- |
| B10 | 0.56 µg/mL | 949 |
| B11 | 0.58 µg/mL | 902 |
| B12 | 1.09 µg/mL | 970 |
| B13 | 0.65 µg/mL | 927 |
| B14 | 1.19 µg/mL | 945 |

Each molecule was assayed against T3, CHIM (Homo sapiens, UniProt P06731, A174T/A211G/A239V/A261S/A267P/C12H/D173N/E253A/E283V/F203L/F272R/F277P/F63I/H123Q/H61N/H9C/I100T/I112V/I113T/I13V/I230T/I80V/INS244IISP/K155N/K214E/L18V/L245P/L62R/N182G/N204S/N246D/N288K/P266S/P287A/Q16K/Q78L/R139H/R17E/R198M/R224N/R250L/R77S/S228P/S280H/T171V/T206K/T210A/T217I/T247S/T276I/V221A/V273I/V291P/V55A/W11L) (assay: SPR affinity comparison of affinity matured humanized BGA7592 variants on CHIM). Details: not given.
T3 construct: CEACAM6 N-terminal part (fusion partner); 6xHis (C); made in house; host or cells: HEK293-based mammalian cell expression system
T3 sequence (P06731 with tags, fused parts or gaps H9C/W11L/C12H/I13V/Q16K/R17E/L18V/V55A/H61N/L62R/F63I/R77S/Q78L/I80V/I100T/I112V/I113T/H123Q/R139H/K155N/T171V/D173N/A174T/N182G/R198M/F203L/N204S/T206K/T210A/A211G/K214E/T217I/V221A/R224N/S228P/I230T/A239V/INS244IISP/L245P/N246D/T247S/R250L/E253A/A261S/P266S/A267P/F272R/V273I/T276I/F277P/S280H/E283V/P287A/N288K/V291P): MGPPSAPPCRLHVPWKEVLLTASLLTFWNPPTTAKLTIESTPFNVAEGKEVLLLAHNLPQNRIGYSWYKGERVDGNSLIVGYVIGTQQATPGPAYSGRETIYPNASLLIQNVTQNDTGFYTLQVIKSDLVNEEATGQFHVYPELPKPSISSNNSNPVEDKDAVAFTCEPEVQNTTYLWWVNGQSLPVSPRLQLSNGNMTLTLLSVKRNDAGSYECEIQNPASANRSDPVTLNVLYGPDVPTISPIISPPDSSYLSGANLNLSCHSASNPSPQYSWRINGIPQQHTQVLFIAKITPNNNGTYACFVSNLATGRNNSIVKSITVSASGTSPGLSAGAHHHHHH
Format: binding

| Molecule | binding activities compared to BGA7592-1F-ph-F (BGA9521) |
| --- | --- |
| B2 | improved binding activities |
| B3 | improved binding activities |

Same assay, conditions: Table 11, SPR to CHIM

| Molecule | Ka | Rmax |
| --- | --- | --- |
| B2 | 18400 M⁻¹ s⁻¹ | 59.4 RU |
| B3 | 19800 M⁻¹ s⁻¹ | 71.1 RU |

What follows are molecules tested against T4, recombinant soluble human CEA (extracellular domain, AA 1-687 of huCEA, C-terminal 6xHis) (human, UniProt P06731 35-687) (assay: SPR; kinetics on huCEA, IgG format). Details: not given.
T4 construct: also called sCEA; soluble CEA
T4 sequence: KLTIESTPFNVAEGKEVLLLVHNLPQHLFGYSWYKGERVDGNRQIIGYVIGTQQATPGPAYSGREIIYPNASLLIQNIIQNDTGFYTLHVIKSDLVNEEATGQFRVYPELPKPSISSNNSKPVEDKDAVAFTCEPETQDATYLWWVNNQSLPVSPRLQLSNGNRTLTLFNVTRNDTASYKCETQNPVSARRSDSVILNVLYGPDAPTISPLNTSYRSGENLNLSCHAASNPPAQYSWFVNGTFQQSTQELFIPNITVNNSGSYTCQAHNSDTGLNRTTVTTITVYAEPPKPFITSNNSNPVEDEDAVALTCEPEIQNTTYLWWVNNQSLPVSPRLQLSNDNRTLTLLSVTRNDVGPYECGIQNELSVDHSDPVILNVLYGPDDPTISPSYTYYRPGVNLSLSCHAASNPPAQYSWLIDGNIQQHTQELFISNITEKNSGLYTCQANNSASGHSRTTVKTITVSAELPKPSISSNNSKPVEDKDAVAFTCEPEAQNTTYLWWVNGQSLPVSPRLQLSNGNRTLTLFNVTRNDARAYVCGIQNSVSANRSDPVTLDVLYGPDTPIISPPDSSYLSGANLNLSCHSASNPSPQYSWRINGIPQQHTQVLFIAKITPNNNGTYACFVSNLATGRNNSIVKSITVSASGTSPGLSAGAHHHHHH

| Molecule | Kd | koff | kon |
| --- | --- | --- | --- |
| B15 | 1340 pM | – | – |
| B10 | 1820 pM | 0.000195 s⁻¹ | 107000 M⁻¹ s⁻¹ |
| B11 | 2360 pM | 0.00026 s⁻¹ | 110000 M⁻¹ s⁻¹ |
| B12 | 5290 pM | 0.000177 s⁻¹ | 33400 M⁻¹ s⁻¹ |
| B13 | 2140 pM | 0.00025 s⁻¹ | 117000 M⁻¹ s⁻¹ |
| B14 | 4500 pM | 0.000188 s⁻¹ | 41700 M⁻¹ s⁻¹ |
